Starred links: 1 amine or outer side, 2 acyl side, 3 side chain; linkers in the order of their positions; H or OH if unused. Positions of bridges follow the written chain, without caps; N, C: chain ends. Non-standard residues stand in square brackets, D forms with d. Primed or numbered codes have the meaning given here. PyrS2″ = (S)-3-amino-1-((pent-4-en-1-yloxy)carbonyl)pyrrolidine-3-carboxylic acid (stapling residue), C=CCCCOC(=O)N1CC[C@@](N[*:1])(C(=O)[*:2])C1; B5(4) = 2,2-bis(4-pentenyl)glycine = 2-amino-2-(pent-4-en-1-yl)hept-6-enoic acid (stitching residue), C=CCCCC(CCCC=C)(N[*:1])C(=O)[*:2]; B5(5) = 2,2-bis(4-pentenyl)glycine, 2-amino-2-(pent-4-en-1-yl)hept-6-enoic acid (stitching residue), C=CCCCC(CCCC=C)(N[*:1])C(=O)[*:2]; TfeGA = (S)-2-amino-3-((carboxymethyl)(2,2,2-trifluoroethyl)amino)propanoic acid, O=C([C@H](CN(CC(=O)[*:3])CC(F)(F)F)N[*:1])[*:2]; PyrS2 = (S)-3-amino-1-((pent-4-en-1-yloxy)carbonyl)pyrrolidine-3-carboxylic acid, C=CCCCOC(=O)N1CC[C@@](N[*:1])(C(=O)[*:2])C1; B5(22) = 2-amino-2-(pent-4-en-1-yl)hept-6-enoic acid (two alkene side chains), C=CCCCC(CCCC=C)(N[*:1])C(=O)[*:2]; B5(3) = 2,2-bis(4-pentenyl)glycine (stitching residue), C=CCCCC(CCCC=C)(N[*:1])C(=O)[*:2]; B5 = 2-amino-2-(pent-4-en-1-yl)hept-6-enoic acid, C=CCCCC(CCCC=C)(N[*:1])C(=O)[*:2]; Phe(3-COOH) = N[C@@H](Cc1cccc(C(=O)O)c1)C(=O)O; Phe(2-CF3) = N[C@@H](Cc1ccccc1C(F)(F)F)C(=O)O; Phe(3,4-Me2) = Cc1ccc(C[C@H](N)C(=O)O)cc1C; Phe(3-Br) = N[C@@H](Cc1cccc(Br)c1)C(=O)O; Bta = N[C@@H](Cc1csc2ccccc12)C(=O)O; αAllylPro = C=CC[C@@]1(C(=O)O)CCCN1; tBuAla = CC(C)(C)C[C@H](N)C(=O)O; 3Thi = N[C@@H](Cc1ccsc1)C(=O)O; S8 = C=CCCCCCC[C@](C)(N)C(=O)O; hSer = N[C@@H](CCO)C(=O)O; Nle = CCCC[C@H](N)C(=O)O; Aib = CC(C)(N)C(=O)O
Legend:
[1] = molecular target: full-length beta-Catenin (Uniprot ID P35222) (Homo sapiens (Human)) (UniProt P35222); assay: fluorescence polarization competition; 10 nM full-length beta-catenin + 10 nM 5FAM-TCF4(10-53) probe
Target sequence in this assay (P35222 whole entry, the tested form may be a part): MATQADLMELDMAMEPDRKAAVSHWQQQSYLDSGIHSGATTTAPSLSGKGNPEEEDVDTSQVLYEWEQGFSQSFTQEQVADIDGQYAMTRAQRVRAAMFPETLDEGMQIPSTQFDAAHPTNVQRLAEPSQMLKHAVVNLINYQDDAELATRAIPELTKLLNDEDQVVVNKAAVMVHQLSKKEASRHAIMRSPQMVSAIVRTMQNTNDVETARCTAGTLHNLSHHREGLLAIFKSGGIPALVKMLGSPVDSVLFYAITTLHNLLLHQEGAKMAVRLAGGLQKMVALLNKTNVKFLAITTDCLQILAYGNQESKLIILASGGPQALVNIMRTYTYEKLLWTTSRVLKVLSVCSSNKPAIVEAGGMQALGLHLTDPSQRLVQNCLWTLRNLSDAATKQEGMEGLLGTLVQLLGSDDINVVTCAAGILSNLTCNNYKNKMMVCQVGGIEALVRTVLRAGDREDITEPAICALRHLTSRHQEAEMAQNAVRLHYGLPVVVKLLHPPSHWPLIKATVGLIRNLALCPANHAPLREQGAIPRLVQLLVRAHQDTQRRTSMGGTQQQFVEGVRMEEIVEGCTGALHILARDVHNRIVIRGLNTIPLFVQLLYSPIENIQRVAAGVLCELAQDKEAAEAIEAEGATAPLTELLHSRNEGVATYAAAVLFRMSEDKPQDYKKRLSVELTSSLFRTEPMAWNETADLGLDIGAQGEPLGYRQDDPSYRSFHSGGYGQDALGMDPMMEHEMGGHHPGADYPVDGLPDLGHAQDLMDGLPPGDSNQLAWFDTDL

[2] = molecular target: full-length beta-Catenin (Uniprot ID P35222) (Homo sapiens (Human)) (UniProt P35222); assay: fluorescence polarization competition; full-length beta-catenin, 5FAM-TCF4(10-53) probe
Target sequence in this assay (P35222 2-781 limits assumed): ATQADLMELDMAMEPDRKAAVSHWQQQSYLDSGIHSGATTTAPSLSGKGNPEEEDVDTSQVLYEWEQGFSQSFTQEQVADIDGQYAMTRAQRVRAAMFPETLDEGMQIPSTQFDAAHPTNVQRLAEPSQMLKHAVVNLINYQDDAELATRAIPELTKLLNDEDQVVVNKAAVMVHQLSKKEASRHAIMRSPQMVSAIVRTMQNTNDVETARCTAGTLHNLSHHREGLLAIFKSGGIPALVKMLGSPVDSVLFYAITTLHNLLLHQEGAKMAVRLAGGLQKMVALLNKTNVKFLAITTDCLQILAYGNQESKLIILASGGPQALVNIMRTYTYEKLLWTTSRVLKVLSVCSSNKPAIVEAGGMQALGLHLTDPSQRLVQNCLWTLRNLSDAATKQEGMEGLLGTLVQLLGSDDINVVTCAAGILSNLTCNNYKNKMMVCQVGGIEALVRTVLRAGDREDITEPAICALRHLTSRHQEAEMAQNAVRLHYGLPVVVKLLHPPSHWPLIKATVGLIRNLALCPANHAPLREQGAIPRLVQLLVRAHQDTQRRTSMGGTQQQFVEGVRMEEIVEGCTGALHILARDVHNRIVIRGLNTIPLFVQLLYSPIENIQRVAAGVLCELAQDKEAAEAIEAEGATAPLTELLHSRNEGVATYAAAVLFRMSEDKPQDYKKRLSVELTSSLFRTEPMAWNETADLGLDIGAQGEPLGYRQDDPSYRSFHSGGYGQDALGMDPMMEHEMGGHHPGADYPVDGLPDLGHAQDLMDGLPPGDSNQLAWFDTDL

[3] = molecular target: full-length beta-Catenin (Uniprot ID P35222) (Homo sapiens (Human)) (UniProt P35222); assay: fluorescence polarization competition; full-length beta-catenin, competitor 5FAM-TCF4(10-53) probe
Target sequence in this assay (P35222 whole entry, the tested form may be a part): as the sequence (P35222 whole entry, the tested form may be a part) above

[4] = molecular target: full-length beta-Catenin (Uniprot ID P35222) (Homo sapiens (Human)) (UniProt P35222); assay: fluorescence polarization competition; full-length beta-catenin with 5FAM-labeled TCF4 residues 10-53 probe as competitor
Target sequence in this assay (P35222 whole entry, the tested form may be a part): as above

[5] = molecular target: full-length beta-Catenin (Uniprot ID P35222) (Homo sapiens (Human)) (UniProt P35222); assay: fluorescence polarization competition; full-length beta-catenin, competitor probe 5FAM-TCF4(10-53)
Target sequence in this assay (P35222 whole entry, the tested form may be a part): as above

| Binder | EC50 [1] | IC50 [2] | other results |
| --- | --- | --- | --- |
| Ac-[αAllylPro]D[tBuAla][B5(5)]D[TfeGA]AAFN[PyrS2″][3Thi][Bta]L-NH2 (staple 1-4, 4-11; also: staple isomer composition, later-eluting HPLC peak) [I-947] | 1050 nM | 1050 nM | – |
| Ac-[αAllylPro]DL[B5(5)]DEAAFN[S8]F[Bta]Q[Aib]-NH2 (staple 1-4, 4-11; also: later-eluting staple isomer) [I-737] | – | – | IC50 [3]: 353 nM; EC50 [4]: 353 nM |
| Ac-[αAllylPro]DI[B5(4)]DEAA[tBuAla]Q[S8]F[Bta]Q-NH2 (staple 1-4, 4-11) [I-727] | – | – | IC50 [3]: 5000 nM; EC50 [4]: 5000 nM |
| Ac-[αAllylPro]D[tBuAla][B5(4)]D[Phe(3-COOH)]AAFL[PyrS2][Phe(2-CF3)][Phe(3,4-Me2)]S-NH2 (staple 1-4, 4-11) [I-2293] | – | – | IC50 [5]: 15 nM |
| Ac-[αAllylPro]D[tBuAla][B5(5)]D[TfeGA]AAFN[PyrS2″][3Thi][Bta]A-NH2 (staple 1-4, 4-11; also: staple isomer composition, later-eluting HPLC peak) [I-945] | 1080 nM | 1080 nM | – |
| Ac-[αAllylPro]D[tBuAla][B5(4)]D[Phe(3-COOH)]AAFL[PyrS2][3Thi][Phe(3,4-Me2)]Q-NH2 (staple 1-4, 4-11) [I-2291] | – | – | IC50 [5]: 5 nM |
| Ac-[αAllylPro]D[tBuAla][B5(22)]D[TfeGA]AAFN[PyrS2][3Thi][Bta]S-NH2 (staple 1-4, 4-11; also: staple isomer composition, later-eluting HPLC peak) [I-941] | 2110 nM | 2110 nM | – |
| Ac-[αAllylPro]D[tBuAla][B5(5)]D[TfeGA]AAFN[PyrS2″][3Thi][Bta]A-NH2 (staple 1-4, 4-11; also: staple isomer composition, earlier-eluting HPLC peak) [I-944] | 761 nM | 761 nM | – |
| Ac-[αAllylPro]DL[B5(5)]DEAAFN[S8]F[Bta]H[Aib]-NH2 (staple 1-4, 4-11) [I-743] | – | – | IC50 [3]: 85 nM; EC50 [4]: 85 nM |
| Ac-[αAllylPro]DI[B5(4)]DEAA[Nle]Q[S8]F[Bta]Q-NH2 (staple 1-4, 4-11) [I-728] | – | – | IC50 [3]: 289 nM; EC50 [4]: 289 nM |
| Ac-[αAllylPro]D[tBuAla][B5(5)]D[TfeGA]AAFN[PyrS2″][3Thi][Bta]L-NH2 (staple 1-4, 4-11; also: staple isomer composition, earlier-eluting HPLC peak) [I-946] | 798 nM | 798 nM | – |
| Ac-[αAllylPro]DL[B5(5)]DEAAFN[S8]F[Bta]Q[Aib]-NH2 (staple 1-4, 4-11; also: earlier-eluting staple isomer) [I-736] | – | – | IC50 [3]: 440 nM; EC50 [4]: 440 nM |
| Ac-[αAllylPro]D[tBuAla][B5(5)]D[TfeGA]AAFN[PyrS2″][3Thi][Bta]T-NH2 (staple 1-4, 4-11; also: staple isomer composition, earlier-eluting HPLC peak) [I-942] | 1280 nM | 1280 nM | – |
| Ac-[αAllylPro]D[tBuAla][B5(5)]D[TfeGA]AAFN[PyrS2″][3Thi][Bta]T-NH2 (staple 1-4, 4-11; also: staple isomer composition, later-eluting HPLC peak) [I-943] | 1990 nM | 1990 nM | – |
| Ac-[αAllylPro]D[tBuAla][B5(22)]D[TfeGA]AAFN[PyrS2][3Thi][Bta]S-NH2 (staple 1-4, 4-11; also: staple isomer, earlier eluting HPLC peak) [I-940] | 1740 nM | 1740 nM | – |
| Ac-[αAllylPro]D[tBuAla][B5(5)]D[TfeGA]AAFN[PyrS2″][3Thi][Bta][dT]-NH2 (staple 1-4, 4-11; also: staple isomer composition, earlier-eluting HPLC peak) [I-948] | 2430 nM | 2430 nM | – |

Now from value to binder, other results behind:

| EC50 [1] | IC50 [2] | Binder | other results |
| --- | --- | --- | --- |
| – | 10000 nM | Ac-[αAllylPro]D[tBuAla][B5]TTAAFN[PyrS2][3Thi][Bta]Q-NH2 (staple 1-4, 4-11; also: earlier eluting HPLC isomer) [I-2148] | – |
| – | 970 nM | Ac-[αAllylPro]D[tBuAla][B5]NTAAFN[PyrS2][3Thi][Bta]W-NH2 (staple 1-4, 4-11; also: later eluting HPLC isomer) [I-2139] | – |
| – | 7180 nM | Ac-[αAllylPro]D[tBuAla][B5]TTAAFN[PyrS2][3Thi][Bta]Q-NH2 (staple 1-4, 4-11; also: later eluting HPLC isomer) [I-2149] | – |
| – | 1480 nM | Ac-[αAllylPro]D[tBuAla][B5]D[Phe(3-COOH)]AAFL[PyrS2][Phe(3-Br)]FQ-NH2 (staple 1-4, 4-11) [I-2153] | – |
| – | 310 nM | Ac-[αAllylPro]D[tBuAla][B5]NTAAFN[PyrS2][3Thi][Bta]H-NH2 (staple 1-4, 4-11; also: later eluting HPLC isomer) [I-2141] | – |
| 1630 nM | 1630 nM | Ac-[αAllylPro]D[tBuAla][B5(4)]D[TfeGA]AAFN[PyrS2″][3Thi][Bta][hSer]-NH2 (staple 1-4, 4-11; also: earlier-eluting staple isomer composition) [I-950] | – |
| – | 10000 nM | Ac-[αAllylPro]D[tBuAla][B5]D[Phe(3-COOH)]AAFL[PyrS2][Phe(3-Br)][Phe(2-CF3)]Q-NH2 (staple 1-4, 4-11) [I-2155] | – |
| – | 248 nM | Ac-[αAllylPro]D[tBuAla][B5]NTAAFH[PyrS2][3Thi][Bta]Q-NH2 (staple 1-4, 4-11; also: earlier eluting HPLC isomer) [I-2146] | – |
| 2260 nM | 2260 nM | Ac-[αAllylPro]D[tBuAla][B5(5)]D[TfeGA]AAFN[PyrS2″][3Thi][Bta][dT]-NH2 (staple 1-4, 4-11; also: staple isomer composition, later-eluting HPLC peak) [I-949] | – |
| 1470 nM | 1470 nM | Ac-[αAllylPro]D[tBuAla][B5]D[TfeGA]AAFN[PyrS2][3Thi][Bta][hSer]-NH2 (staple 1-4, 4-11; also: later-eluting staple isomer composition) [I-951] | – |
| – | 217 nM | Ac-[αAllylPro]D[tBuAla][B5]NTAAFN[PyrS2][3Thi][Bta]A-NH2 (staple 1-4, 4-11; also: later eluting HPLC isomer) [I-2143] | – |
| – | 390 nM | Ac-[αAllylPro]D[tBuAla][B5]NTAAFH[PyrS2][3Thi][Bta]Q-NH2 (staple 1-4, 4-11; also: later eluting HPLC isomer) [I-2147] | – |
| – | 1010 nM | Ac-[αAllylPro]D[tBuAla][B5(3)]NTAAFN[PyrS2″][3Thi][Bta]W-NH2 (staple 1-4, 4-11; also: earlier eluting HPLC isomer) [I-2138] | – |
| – | 2020 nM | Ac-[αAllylPro]D[tBuAla][B5]NTAAFT[PyrS2][3Thi][Bta]F-NH2 (staple 1-4, 4-11; also: earlier eluting HPLC isomer) [I-2144] | – |
| – | 233 nM | Ac-[αAllylPro]D[tBuAla][B5]NTAAFN[PyrS2][3Thi][Bta]H-NH2 (staple 1-4, 4-11; also: earlier eluting HPLC isomer) [I-2140] | – |
| – | 2070 nM | Ac-[αAllylPro]D[tBuAla][B5]NTAAFT[PyrS2][3Thi][Bta]F-NH2 (staple 1-4, 4-11; also: later eluting HPLC isomer) [I-2145] | – |
